# According to patent US20230227512A1 (published 2023):
# B1: F105 antibody (antibody, V domains shown)
# VH: QVQLQESGPGLVKPSETLSLTCTVSGGSISSHYWSWIRQSPGKGLQWIGYIYYSGSTNYSPSLKSRVTISVETAKNQFSLKLTSMTAADTAVYYCARGPVPAVFYGDYRLDPWGQGTLVTVSS
# VL: EIVLTQSPGTLSLSAGERATLSCRASQSVSSRYLAWYQQKPGQAPRLLIYGASSRATGIPDRFSGSGSGTDFTLTISRVEPEDFAVYYCQQYDNSVCTFGQGTKLEIK
# B2: VRC01 (antibody, V domains shown)
# VH: QVQLVQSGGQMKKPGESMRISCRASGYEFIDCTLNWIRLAPGKRPEWMGWLKPRGGAVNYARPLQGRVTMTRDVYSDTAFLELRSLTVDDTAVYFCTRGKNCDYNWDFEHWGRGTPVIVSS
# VL: EIVLTQSPGTLSLSPGETAIISCRTSQYGSLAWYQQRPGQAPRLVIYSGSTRAAGIPDRFSGSRWGPDYNLTISNLESGDFGVYYCQQYEFFGQGTKVQVDI
# B3: PGT145 antibody (antibody, V domains shown)
# VH: QVQLVQSGAEVKKPGSSVKVSCKASGNSFSNHDVHWVRQATGQGLEWMGWMSHEGDKTGLAQKFQGRVTITRDSGASTVYMELRGLTADDTAIYYCLTGSKHRLRDYFLYNEYGPNYEEWGDYLATLDVWGHGTAVTVSS
# VL: EVVITQSPLFLPVTPGEAASLSCKCSHSLQHSTGANYLAWYLQRPGQTPRLLIHLATHRASGVPDRFSGSGSGTDFTLKISRVESDDVGTYYCMQGLHSPWTFGQGTKVEIK
# B4: 447-52D antibody (antibody, V domains shown)
# VH: EVQLVESGGGLVKPGGSLRLTCVASGFTFSDVWLNWVRQAPGKGLEWVGRIKSRTDGGTTDYAASVKGRFTISRDDSKNTLYLQMNSLKTEDTAVYSCTTDGFIMIRGVSEDYYYYYMDVWGKGTTVTVSS
# VL: QSVLTQPPSVSAAPGQKVTISCSGSSSNIGNNYVLWYQQFPGTAPKLLIYGNNKRPSGIPDRFSGSKSGTSATLGITGLQTGDEADYFCATWDSGLSADWVFGGGTKLTVL
# B5: 35O22 Fab (Fab, V domains shown)
# VH: QGQLVQSGAELKKPGASVKISCKTSGYRFNFYHINWIRQTAGRGPEWMGWISPYSGDKNLAPAFQDRVIMTTDTEVPVTSFTSTGAAYMEIRNLKFDDTGTYFCAKGLLRDGSSTWLPYLWGQGTLLTVSS
# VL: QSVLTQSASVSGSLGQSVTISCTGPNSVCCSHKSISWYQWPPGRAPTLIIYEDNERAPGISPRFSGYKSYWSAYLTISDLRPEDETTYYCCSYTHNSGCVFGTGTKVSVL
# B6: PGT151 Fab (Fab, V domains shown)
# VH: RVQLVESGGGVVQPGKSVRLSCVVSDFPFSKYPMYWVRQAPGKGLEWVAAISGDAWHVVYSNSVQGRFLVSRDNVKNTLYLEMNSLKIEDTAVYRCARMFQESGPPRLDRWSGRNYYYYSGMDVWGQGTTVTVSS
# VL: DIVMTQTPLSLSVTPGQPASISCKSSESLRQSNGKTSLYWYRQKPGQSPQLLVFEVSNRFSGVSDRFVGSGSGTDFTLRISRVEAEDVGFYYCMQSKDFPLTFGGGTKVDLKR
# Assays:
# [1] = molecular target: BG505 SOSIP.664 HIV-1 Env ectodomain trimer; assay: SPR
# [2] = molecular target: BG505.SOSIP.664.201C-433C HIV-1 Env ectodomain trimer; assay: SPR
# [3] = molecular target: BG505 SOSIP.664 HIV-1 Env ectodomain trimer; assay: BLI
# [4] = molecular target: BG505.SOSIP.664.201C-433C HIV-1 Env ectodomain trimer; assay: BLI
# [5] = molecular target: BG505.SOSIP.664.201C-433C HIV-1 Env ectodomain trimer; assay: BLI; remark: listed apart in the source
# [6] = molecular target: BG505.SOSIP.664.201C-433C HIV-1 Env ectodomain trimer; assay: SPR; remark: listed apart in the source
# [7] = molecular target: BG505 SOSIP.664 HIV-1 Env ectodomain trimer; assay: SPR; 2G12 capture
# [8] = molecular target: T1, BG505 SOSIP.664 trimer+sCD4 complex (human, UniProt P01730 26-208); assay: SPR
# [9] = molecular target: BG505.SOSIP.664.201C-433C HIV-1 Env ectodomain trimer; assay: SPR; +sCD4
# [10] = molecular target: T1, BG505 SOSIP.664 trimer+sCD4 complex; assay: SPR; 17b capture
# [11] = molecular target: BG505 SOSIP.664 HIV-1 Env ectodomain trimer; assay: SPR; CD4 Ig capture
# [12] = molecular target: BG505 SOSIP.664 HIV-1 Env ectodomain trimer; assay: SPR; CD4 Ig capture; remark: listed apart in the source
Binder,Kd [1] [µM],Kd [2] [µM],Kd [3] [µM],Kd [4] [µM],Kd [5] [µM],Kd [6] [µM],Kd [7] [µM],Kd [8] [µM],Kd [9] [µM],Kd [10] [µM],Kd [11] [µM],Kd [12] [µM]
B1,> 1,> 1,> 4,> 4,–,–,–,–,–,–,–,–
B2,–,–,–,–,0.00281,0.00143,–,–,–,–,–,–
B3,0.00438,0.00722,0.0018,0.00168,–,–,0.0228,–,–,–,–,–
B4,> 1,> 1,> 4,> 4,–,–,–,0.0012,> 1,–,–,–
B5,–,–,–,–,0.0277,0.00304,–,–,–,0.0272,0.028,–
B6,0.158,0.0784,0.135,0.202,–,–,0.144,–,–,–,–,0.106
